Literature values in PMC4495883.

Molecular target: insulin-degrading enzyme (112 kDa protein) (Rattus norvegicus) (UniProt P35559)
Assay: cross-linking

Sequence of UniProt P35559 (P35559 whole entry): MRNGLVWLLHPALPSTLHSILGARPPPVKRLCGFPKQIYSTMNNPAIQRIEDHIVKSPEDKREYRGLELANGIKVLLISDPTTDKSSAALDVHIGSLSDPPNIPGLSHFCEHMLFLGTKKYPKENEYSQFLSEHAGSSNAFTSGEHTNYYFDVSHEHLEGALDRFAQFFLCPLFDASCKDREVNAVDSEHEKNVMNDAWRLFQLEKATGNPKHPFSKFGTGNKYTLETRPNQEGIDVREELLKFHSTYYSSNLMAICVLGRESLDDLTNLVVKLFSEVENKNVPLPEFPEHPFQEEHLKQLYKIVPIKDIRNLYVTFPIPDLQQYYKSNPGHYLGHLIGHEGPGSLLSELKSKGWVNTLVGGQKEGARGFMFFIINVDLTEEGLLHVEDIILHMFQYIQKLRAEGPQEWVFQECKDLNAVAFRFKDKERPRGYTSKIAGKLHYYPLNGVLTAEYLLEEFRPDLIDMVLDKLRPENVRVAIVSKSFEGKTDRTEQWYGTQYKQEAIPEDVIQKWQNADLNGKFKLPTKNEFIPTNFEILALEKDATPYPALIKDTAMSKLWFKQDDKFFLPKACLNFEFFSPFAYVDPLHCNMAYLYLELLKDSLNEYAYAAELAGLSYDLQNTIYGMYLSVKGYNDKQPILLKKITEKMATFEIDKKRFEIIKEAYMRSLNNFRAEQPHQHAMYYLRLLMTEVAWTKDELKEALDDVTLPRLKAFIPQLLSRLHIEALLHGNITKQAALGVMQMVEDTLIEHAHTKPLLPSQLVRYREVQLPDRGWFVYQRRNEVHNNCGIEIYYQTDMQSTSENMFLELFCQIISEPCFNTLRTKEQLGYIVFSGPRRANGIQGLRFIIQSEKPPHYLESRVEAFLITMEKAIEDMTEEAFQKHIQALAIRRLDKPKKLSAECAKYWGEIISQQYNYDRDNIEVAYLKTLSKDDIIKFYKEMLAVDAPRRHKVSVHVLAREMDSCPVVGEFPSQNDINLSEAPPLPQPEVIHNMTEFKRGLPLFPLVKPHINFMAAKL

Kd: 60 nM
Substance: ANP (from UniProt P01161)
